Measured values taken from patent publication US20210388110A1 (published 2021).
Substitutions are numbered along the chain they refer to.

B1: TR01H075-E22Hh/none-Hi-Kn010G3/L0000-k0 (antibody, human IgG1, kappa, L234A L235A, N297A)
heavy: QVQLVESGGGLVQPGRSLRLSCAASGFTFSNAWMHWVRQAPGKGLEWVAQIKDKSQNYATYYAESVKGRFTISRDDSKNSLYLQMNSLKTEDTAVYYCRYVHYAASYGVDYWGQGTTVTVSSASTKGPSVFPLAPSSKSTSGGTAALGCLVKDYFPEPVTVSWNSGALTSGVHTFPAVLQSSGLYSLSSVVTVPSSSLGTQTYICNVNHKPSNTKVDKKVEPKSCDKTHTCPPCPAPEAAGGPSVFLFPPKPKDTLMISRTPEVTCVVVDVSHEDPEVKFNWYVDGVEVHNAKTKPREEQYASTYRVVSVLTVLHQDWLNGKEYKCKVSNKALPAPIEKTISKAKGQPREPQVYTLPPSRCELTKNQVSLSCAVKGFYPSDIAVEWESNGQPENNYKTTPPVLDSDGSFFLVSKLTVDKSRWQQGNVFSCSVMHEALHNHYTQKSLSLSPDYKDDDDK
chain: EPKSSDKTHTCPPCPAPELLGGPSVFLFPPKPKDTLMISRTPEVTCVVVDVSHEDPEVKFNWYVDGVEVHNAKTKPREEQYNSTYRVVSVLTVLHQDWLNGKEYKCKVSNKALPAPIEKTISKAKGQPREPQVCTLPPSRDELTKNQVSLWCLVKGFYPSDIAVEWESNGQPENNYKTTPPVLDSDGSFFLYSKLTVDKSRWQQGNVFSCSVMHEALHNRYTQKSLSLSP
light: DIVMTQSPLSLPVTPGEPASISCRSSQSLVHSNRNTYLHWYQQKPGQAPRLLIYKVSNRFSGVPDRFSGSGSGTDFTLKISRVEAEDVGVYYCGQGTQVPYTFGQGTKLEIKRTVAAPSVFIFPPSDEQLKSGTASVVCLLNNFYPREAKVQWKVDNALQSGNSQESVTEQDSKDSTYSLSSTLTLSKADYEKHKVYACEVTHQGLSSPVTKSFNRGEC
notes: one-arm antibody (single Fab) with Fab-less hinge-Fc chain Hi-Kn010G3
B2: TR01H023-E22Hh/none-Hi-Kn010G3/L0000-k0 (antibody, human IgG1, kappa, L234A L235A, N297A)
heavy: B1 heavy with R16G, D53G, D75A, L81I, A104S, Y111I
chain: B1 chain
light: B1 light
notes: as for B1
B3: TR01H034-E22Hh/none-Hi-Kn010G3/L0000-k0 (antibody, human IgG1, kappa, L234A L235A, N297A)
heavy: B1 heavy with D53G, D75A, L81I, A104S, Y111A
chain: B1 chain
light: B1 light
notes: as for B1
B4: TR01H067-E22Hh/none-Hi-Kn010G3/L0011-k0 (antibody, human IgG1, kappa, L234A L235A, N297A)
heavy: B1 heavy with Y111A
chain: B1 chain
light: B1 light with S28P
notes: as for B1
B5: TR01H067-E22Hh/none-Hi-Kn010G3/L0248-k0 (antibody, human IgG1, kappa, L234A L235A, N297A)
heavy: B1 heavy with Y111A
chain: B1 chain
light: B1 light with S25P, L29P, L38I, H39Q, G94Y
notes: as for B1
B6: TR01H056-E22Hh/none-Hi-Kn010G3/L0000-k0 (antibody, human IgG1, kappa, L234A L235A, N297A)
heavy: B1 heavy with A104S, Y111I
chain: B1 chain
light: B1 light
notes: as for B1
B7: TR01H022-E22Hh/none-Hi-Kn010G3/L0000-k0 (antibody, human IgG1, kappa, L234A L235A, N297A)
heavy: B1 heavy with R16G, D53G, E64P, D75A, L81I, A104S, Y111I
chain: B1 chain
light: B1 light
notes: as for B1
B8: TR01H040-E22Hh/none-Hi-Kn010G3/L0227-k0 (antibody, human IgG1, kappa, L234A L235A, N297A)
heavy: B1 heavy with D75A, L81I, A104S, Y111A
chain: B1 chain
light: B1 light with L29P, L38I, G94L
notes: as for B1
B9: TR01H040-E22Hh/none-Hi-Kn010G3/L0247-k0 (antibody, human IgG1, kappa, L234A L235A, N297A)
heavy: B1 heavy with D75A, L81I, A104S, Y111A
chain: B1 chain
light: B1 light with L29P, L38I, H39Q, G94I
notes: as for B1
B10: TR01H024-E22Hh/none-Hi-Kn010G3/L0000-k0 (antibody, human IgG1, kappa, L234A L235A, N297A)
heavy: B1 heavy with R16G, D53G, D75A, L81I, A104S, Y111A
chain: B1 chain
light: B1 light
notes: as for B1
B11: TR01H053-E22Hh/none-Hi-Kn010G3/L0000-k0 (antibody, human IgG1, kappa, L234A L235A, N297A)
heavy: B1 heavy with D75A, A104S, Y111A
chain: B1 chain
light: B1 light
notes: as for B1
B12: TR01H054-E22Hh/none-Hi-Kn010G3/L0000-k0 (antibody, human IgG1, kappa, L234A L235A, N297A)
heavy: B1 heavy with D75A, A104S
chain: B1 chain
light: B1 light
notes: as for B1
B13: TR01H070-E22Hh/none-Hi-Kn010G3/L0000-k0 (antibody, human IgG1, kappa, L234A L235A, N297A)
heavy: B1 heavy with L11V, R16G
chain: B1 chain
light: B1 light
notes: as for B1
B14: TR01H040-E22Hh/none-Hi-Kn010G3/TR01L007-k0 (antibody, human IgG1, kappa, L234A L235A, N297A)
heavy: B1 heavy with D75A, L81I, A104S, Y111A
chain: B1 chain
light: B1 light with R24Q, S25A, Q27E, Q42L, A48S, R50Q
notes: as for B1
B15: TR01H067-E22Hh/none-Hi-Kn010G3/TR01L015-k0 (antibody, human IgG1, kappa, L234A L235A, N297A)
heavy: B1 heavy with Y111A
chain: B1 chain
light: B1 light with L29P, Q42L, A48S, R50Q
notes: as for B1
B16: TR01H021-E22Hh/none-Hi-Kn010G3/L0000-k0 (antibody, human IgG1, kappa, L234A L235A, N297A)
heavy: B1 heavy with D53G, Q56N, D75A, L81I, A104S, Y111A
chain: B1 chain
light: B1 light
notes: as for B1
B17: TR01H057-E22Hh/none-Hi-Kn010G3/L0000-k0 (antibody, human IgG1, kappa, L234A L235A, N297A)
heavy: B1 heavy with A104S, Y111A
chain: B1 chain
light: B1 light
notes: as for B1
B18: TR01H015-E22Hh/none-Hi-Kn010G3/TR01L004-k0 (antibody, human IgG1, kappa, L234A L235A, N297A)
heavy: B1 heavy with D53G, Q56N, D75A, L81I, A104S, Y111I
chain: B1 chain
light: B1 light with R24Q, S25A, Q27E, L109V, K112E
notes: as for B1

Biological target: T1, soluble human CD3ε chain (human, UniProt P07766 23-126, limits assumed)
T1 construct: also called human CD3 epsilon chain
Assay: SPR (Biacore), soluble human CD3ε chain

T1 sequence (P07766 23-126 limits assumed): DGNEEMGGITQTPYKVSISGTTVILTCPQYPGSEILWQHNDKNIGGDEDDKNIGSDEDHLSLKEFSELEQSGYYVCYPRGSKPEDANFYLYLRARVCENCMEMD

Row | Binder | Kd
1 | B1 | 98.8 nM
2 | B2 | 79.4 nM
3 | B3 | 91.1 nM
4 | B4 | 71.8 nM
5 | B5 | 139 nM
6 | B6 | 73.2 nM
7 | B7 | 75.8 nM
8 | B8 | 101 nM
9 | B9 | 100 nM
10 | B10 | 108 nM
11 | B11 | 82.3 nM
12 | B12 | 77.9 nM
13 | B13 | 120 nM
14 | B14 | 68.2 nM
15 | B15 | 86.4 nM
16 | B16 | 80.5 nM
17 | B17 | 112 nM
18 | B18 | 73.4 nM
